The data set can be described thus: total protein half-life in vivo (active degradation + dilution); higher = more stable protein.
Setting [1] is: E. coli NCM3722 delta-clpP delta-lon delta-hslV, growth: N-lim chemostat, doubling time 6 h.
[2] abbreviates: E. coli NCM3722 delta-clpP, growth: N-lim chemostat, doubling time 6 h.
The mark [3] stands for this setting: E. coli NCM3722 delta-hslV, growth: N-lim chemostat, doubling time 6 h.
[4] abbreviates: E. coli NCM3722 delta-lon, growth: N-lim chemostat, doubling time 6 h.
Where [5] appears, read: E. coli NCM3722 delta-smpB, growth: N-lim chemostat, doubling time 6 h.
The mark [6] stands for this setting: wild type E. coli NCM3722, growth: C-lim chemostat, doubling time 3 h.
The mark [7] stands for this setting: wild type E. coli NCM3722, growth: C-lim chemostat, doubling time 12 h.
The mark [8] stands for this setting: wild type E. coli NCM3722, growth: P-lim chemostat, doubling time 6 h.
Where [9] appears, read: wild type E. coli NCM3722, growth: P-lim chemostat, doubling time 12 h.
Where [10] appears, read: wild type E. coli NCM3722, growth: C-lim chemostat, doubling time 6 h.
Setting [11] is: wild type E. coli NCM3722, growth: N-lim chemostat, doubling time 6 h.
The mark [12] stands for this setting: wild type E. coli NCM3722, growth: N-lim chemostat, doubling time 12 h.

These results are taken from the supplement of paper PMC11246515.

± gives the standard deviation of the averaged measurements. Bounds are passed on as bounds.

In the case of “MRLSLPRLKMPRLPGFSILVWISTALKGWVMGSREKDTDSLIMYDRTLLWLTFGLAAIGFIMVTSASMPIGQRLTNDPFFFAKRDGVYLILAFILAIITLRLPMEFWQRYSATMLLGSIILLMIVLVVGSSVKGASRWIDLGLLRIQPAELTKLSLFCYIANYLVRKGDEVRNNLRGFLKPMGVILVLAVLLLAQPDLGTVVVLFVTTLAMLFLAGAKLWQFIAIIGMGISAVVLLILAEPYRIRRVTAFWNPWEDPFGSGYQLTQSLMAFGRGELWGQGLGNSVQKLEYLPEAHTDFIFAIIGEELGYVGVVLALLMVFFVAFRAMSIGRKALEIDHRFSGFLACSIGIWFSFQALVNVGAAAGMLPTKGLTLPLISYGGSSLLIMSTAIMMLLRIDYETRLEKAQAFVRGSR [P0ABG4]”, the “total protein half-life in vivo” value by setting is: under setting [1], 4.49 h; under setting [2], 2.97 ± 0.5 h; under setting [3], 3.01 h; under setting [4], 3.64 h; under setting [5], 2.76 ± 0.73 h; under setting [6], 2.41 ± 0.21 h. The “total protein half-life in vivo” value under setting [7] was 3.2 h, the “total protein half-life in vivo” value under setting [8] was 2.93 h and the “total protein half-life in vivo” value under setting [9] stood at 5 h.

Consider “MAIEIKVPDIGADEVEITEILVKVGDKVEAEQSLITVEGDKASMEVPSPQAGIVKEIKVSVGDKTQTGALIMIFDSADGAADAAPAQAEEKKEAAPAAAPAAAAAKDVNVPDIGSDEVEVTEILVKVGDKVEAEQSLITVEGDKASMEVPAPFAGTVKEIKVNVGDKVSTGSLIMVFEVAGEAGAAAPAAKQEAAPAAAPAPAAGVKEVNVPDIGGDEVEVTEVMVKVGDKVAAEQSLITVEGDKASMEVPAPFAGVVKELKVNVGDKVKTGSLIMIFEVEGAAPAAAPAKQEAAAPAPAAKAEAPAAAPAAKAEGKSEFAENDAYVHATPLIRRLAREFGVNLAKVKGTGRKGRILREDVQAYVKEAIKRAEAAPAATGGGIPGMLPWPKVDFSKFGEIEEVELGRIQKISGANLSRNWVMIPHVTHFDKTDITELEAFRKQQNEEAAKRKLDVKITPVVFIMKAVAAALEQMPRFNSSLSEDGQRLTLKKYINIGVAVDTPNGLVVPVFKDVNKKGIIELSRELMTISKKARDGKLTAGEMQGGCFTISSIGGLGTTHFAPIVNAPEVAILGVSKSAMEPVWNGKEFVPRLMLPISLSFDHRVIDGADGARFITIINNTLSDIRRLVM”, for which the “total protein half-life in vivo” value was 6.49 ± 0.23 h under setting [1]; 6.08 ± 0.4 h under setting [2]; 6.48 ± 0.081 h under setting [3]; 6.36 ± 0.067 h under setting [4]; 5.78 ± 0.37 h under setting [5]; 3.08 ± 0.092 h under setting [6]. The “total protein half-life in vivo” value turned out to be 5.778 ± 0.018 h under setting [10]; 10.6 ± 0.66 h under setting [7]; 6.19 ± 0.27 h under setting [11]; 12.3 ± 0.84 h under setting [12]; 6.07 ± 0.26 h under setting [8]; 12.5 ± 0.53 h under setting [9].

In the case of “MYSSSRKRCPKTKWALKLLTAAFLAASPAAKSAVNNAYDALIIEARKGNTQPALSWFALKSALSNNQIADWLQIALWAGQDKQVITVYNRYRHQQLPARGYAAVAVAYRNLQQWQNSLTLWQKALSLEPQNKDYQRGQILTLADAGHYDTALVKLKQLNSGAPDKANLLAEAYIYKLAGRHQDELRAMTESLPENASTQQYPTEYVQALRNNQLAAAIDDANLTPDIRADIHAELVRLSFMPTRSESERYAIADRALAQYAALEILWHDNPDRTAQYQRIQVDHLGALLTRDRYKDVISHYQRLKKTGQIIPPWGQYWVASAYLKDHQPKKAQSIMTELFYHKETIAPDLSDEELADLFYSHLESENYPGALTVTQHTINTSPPFLRLMGTPTSIPNDTWLQGHSFLSTVAKYSNDLPQAEMTARELAYNAPGNQGLRIDYASVLQARGWPRAAENELKKAEVIEPRNINLEVEQAWTALTLQEWQQAAVLTHDVVEREPQDPGVVRLKRAVDVHNLAELRIAGSTGIDAEGPDSGKHDVDLTTIVYSPPLKDNWRGFAGFGYADGQFSEGKGIVRDWLAGVEWRSRNIWLEAEYAERVFNHEHKPGARLSGWYDFNDNWRIGSQLERLSHRVPLRAMKNGVTGNSAQAYVRWYQNERRKYGVSWAFTDFSDSNQRHEVSLEGQERIWSSPYLIVDFLPSLYYEQNTEHDTPYYNPIKTFDIVPAFEASHLLWRSYENSWEQIFSAGVGASWQKHYGTDVVTQLGYGQRISWNDVIDAGATLRWEKRPYDGDREHNLYVEFDMTFRF”, under setting [7], the “total protein half-life in vivo” value is greater than 16 h.

Consider “MKNWKTLLLGIAMIANTSFAAPQVVDKVAAVVNNGVVLESDVDGLMQSVKLNAAQARQQLPDDATLRHQIMERLIMDQIILQMGQKMGVKISDEQLDQAIANIAKQNNMTLDQMRSRLAYDGLNYNTYRNQIRKEMIISEVRNNEVRRRITILPQEVESLAQQVGNQNDASTELNLSHILIPLPENPTSDQVNEAESQARAIVDQARNGADFGKLAIAHSADQQALNGGQMGWGRIQELPGIFAQALSTAKKGDIVGPIRSGVGFHILKVNDLRGESKNISVTEVHARHILLKPSPIMTDEQARVKLEQIAADIKSGKTTFAAAAKEFSQDPGSANQGGDLGWATPDIFDPAFRDALTRLNKGQMSAPVHSSFGWHLIELLDTRNVDKTDAAQKDRAYRMLMNRKFSEEAASWMQEQRASAYVKILSN [P0ABZ6]”, for which the “total protein half-life in vivo” value was determined as 5.66 ± 0.16 h under setting [1]; 6.39 ± 1.2 h under setting [2]; 6.52 ± 0.36 h under setting [3]; 6.49 ± 0.28 h under setting [4]; 5.7 ± 0.35 h under setting [5]; 2.97 ± 0.098 h under setting [6]. In addition, the “total protein half-life in vivo” value stood at 6.4 ± 0.42 h under setting [10]; 11.7 ± 0.87 h under setting [7]; 6.23 ± 0.57 h under setting [11]; 13.1 ± 0.99 h under setting [12]; 5.78 ± 0.24 h under setting [8]; 11.7 ± 0.52 h under setting [9].

As to “MSDNDTIVAQATPPGRGGVGILRISGFKAREVAETVLGKLPKPRYADYLPFKDADGSVLDQGIALWFPGPNSFTGEDVLELQGHGGPVILDLLLKRILTIPGLRIARPGEFSERAFLNDKLDLAQAEAIADLIDASSEQAARSALNSLQGAFSARVNHLVEALTHLRIYVEAAIDFPDEEIDFLSDGKIEAQLNDVIADLDAVRAEARQGSLLREGMKVVIAGRPNAGKSSLLNALAGREAAIVTDIAGTTRDVLREHIHIDGMPLHIIDTAGLREASDEVERIGIERAWQEIEQADRVLFMVDGTTTDAVDPAEIWPEFIARLPAKLPITVVRNKADITGETLGMSEVNGHALIRLSARTGEGVDVLRNHLKQSMGFDTNMEGGFLARRRHLQALEQAAEHLQQGKAQLLGAWAGELLAEELRLAQQNLSEITGEFTSDDLLGRIFSSFCIGK”, the “total protein half-life in vivo” value under setting [1] is 5.13 ± 0.69 h; the “total protein half-life in vivo” value under setting [2] stood at 5.57 ± 0.62 h; the “total protein half-life in vivo” value under setting [3] came out at 4.91 ± 0.24 h; the “total protein half-life in vivo” value under setting [4] is 5.72 ± 0.4 h; the “total protein half-life in vivo” value under setting [5] was found to be 4.68 ± 0.25 h; the “total protein half-life in vivo” value under setting [6] came out at 3.43 ± 0.63 h. Moreover, the “total protein half-life in vivo” value was determined as 5.46 ± 0.16 h under setting [10]; 10.2 ± 5 h under setting [7]; 5.14 ± 0.12 h under setting [11]; 8.32 ± 0.99 h under setting [12]; 5.69 ± 0.32 h under setting [8]; 11.7 ± 0.24 h under setting [9].

Take “MEFSVKSGSPEKQRSACIVVGVFEPRRLSPIAEQLDKISDGYISALLRRGELEGKPGQTLLLHHVPNVLSERILLIGCGKERELDERQYKQVIQKTINTLNDTGSMEAVCFLTELHVKGRNNYWKVRQAVETAKETLYSFDQLKTNKSEPRRPLRKMVFNVPTRRELTSGERAIQHGLAIAAGIKAAKDLGNMPPNICNAAYLASQARQLADSYSKNVITRVIGEQQMKELGMHSYLAVGQGSQNESLMSVIEYKGNASEDARPIVLVGKGLTFDSGGISIKPSEGMDEMKYDMCGAAAVYGVMRMVAELQLPINVIGVLAGCENMPGGRAYRPGDVLTTMSGQTVEVLNTDAEGRLVLCDVLTYVERFEPEAVIDVATLTGACVIALGHHITGLMANHNPLAHELIAASEQSGDRAWRLPLGDEYQEQLESNFADMANIGGRPGGAITAGCFLSRFTRKYNWAHLDIAGTAWRSGKAKGATGRPVALLAQFLLNRAGFNGEE”: the “total protein half-life in vivo” value under setting [1] stood at 6.37 ± 0.15 h; the “total protein half-life in vivo” value under setting [2] turned out to be 6.34 ± 0.31 h; the “total protein half-life in vivo” value under setting [3] was determined as 6.11 ± 0.078 h; the “total protein half-life in vivo” value under setting [4] is 7.01 ± 0.64 h; the “total protein half-life in vivo” value under setting [5] turned out to be 5.81 ± 0.16 h; the “total protein half-life in vivo” value under setting [6] was 3.38 ± 0.097 h. The “total protein half-life in vivo” value by setting is: under setting [10], 6.45 ± 0.3 h; under setting [7], 11.7 ± 1 h; under setting [11], 6.215 ± 0.053 h; under setting [12], 12.7 ± 1.1 h; under setting [8], 6.33 ± 0.09 h; under setting [9], 12.7 ± 0.79 h.
